Laboratory results taken from patent publication US20170183383A1 (JIANG XIANXING, published 2017).
Non-standard residues stand in square brackets, D forms with d. Groups on a side chain read outwards from the residue. Primed or numbered codes have the meaning given here. No end group written: not given here. *: point of attachment. C18 diacid = O=C(O)CCCCCCCCCCCCCCCCC(=O)*; Palmitoyl = CCCCCCCCCCCCCCCC(=O)*; PEG2′ = not defined here; Aib = CC(C)(N)C(=O)O

Legend:
human glucagon receptor = human glucagon receptor (human, UniProt P47871 26-477); test: cell-based or functional assay
[1] = target: human glucagon-like peptide-1 receptor (human, UniProt P43220 24-463); test: cell-based or functional assay
human glucagon-like peptide-1 receptor, sequence (P43220 24-463): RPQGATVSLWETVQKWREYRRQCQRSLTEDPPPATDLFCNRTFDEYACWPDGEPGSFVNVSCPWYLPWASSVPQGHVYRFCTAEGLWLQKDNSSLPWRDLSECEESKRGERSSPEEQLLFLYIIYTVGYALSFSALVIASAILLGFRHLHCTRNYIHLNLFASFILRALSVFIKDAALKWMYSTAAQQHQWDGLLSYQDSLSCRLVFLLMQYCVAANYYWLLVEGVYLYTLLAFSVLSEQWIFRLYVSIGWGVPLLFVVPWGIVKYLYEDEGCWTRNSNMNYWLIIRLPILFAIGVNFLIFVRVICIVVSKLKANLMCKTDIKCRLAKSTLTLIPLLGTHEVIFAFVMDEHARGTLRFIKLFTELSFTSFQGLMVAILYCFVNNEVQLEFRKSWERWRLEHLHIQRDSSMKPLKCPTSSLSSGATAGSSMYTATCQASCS

Binder | GCGR (EC50, nM), CRE-luciferase in HEK-293 cells (human glucagon receptor) [nM] | GLP-1R (EC50, nM), CRE-luciferase in HEK-293 cells [1] [nM]
H[dS]QGTFTSDYSKYLD[Aib]K([PEG2′-PEG2′-C18 diacid])RAQDFVQWLMNTGGPSSGAPPPS-NH2 [Compound 12] | 0.15 | 0.32
H[dS]QGTFTSDK([PEG2′-PEG2′-Glu-C18 diacid])SKYLD[Aib]RRAQDFVQWLMNTGGPSSGAPPPS-NH2 [Compound 8] | 0.18 | 0.2
H[dS]QGTFTSDK([PEG2′-PEG2′-C18 diacid])SKYLD[Aib]RRAQDFVQWLMNTGGPSSGAPPPS-NH2 [Compound 6] | 0.33 | 0.1
H[dS]QGTFTSDK([PEG2′-PEG2′-Palmitoyl])SKYLD[Aib]RRAQDFVQWLMNTGGPSSGAPPPS-NH2 [Compound 5] | 0.43 | 0.06
H[dS]QGTFTSDYSKYLDK([PEG2′-PEG2′-Glu-Palmitoyl])RRAQDFVQWLMNTGGPSSGAPPPS-NH2 [Compound 10] | 0.11 | 0.35
H[dS]QGTFTSDYSKYLDK([PEG2′-PEG2′-Glu-C18 diacid])RRAQDFVQWLMNTGGPSSGAPPPS-NH2 [Compound 11] | 0.18 | 0.15
H[dS]QGTFTSDYSK([PEG2′-PEG2′-Palmitoyl])KLD[Aib]RRAQDFVQWLMNTGGPSSGAPPPS-NH2 [Compound 15] | 0.6 | 1.5
H[dS]QGTFTSDYSKYLDEKAAK([PEG2′-PEG2′-Glu-C18 diacid])EFIEWLLNGGPSSGAPPPS-NH2 [Compound 4] | 0.39 | 0.13
H[dS]QGTFTSDK([PEG2′-PEG2′-Glu-Palmitoyl])SKYLD[Aib]RRAQDFVQWLMNTGGPSSGAPPPS-NH2 [Compound 7] | 0.34 | 
H[dS]QGTFTSDYSKYLDSK([PEG2′-PEG2′-Glu-C18 diacid])AAHDFVEWLLNGGPSSGAPPPS-NH2 [Compound 3] | 1.02 | 0.59
H[Aib]QGTFTSDK([PEG2′-PEG2′-Glu-C18 diacid])SKYLDERRAQDFVQWLLDGGPSSGAPPPS-NH2 [Compound 20] | 0.48 | 0.09
HSQGTFTSDYSKYLDSRRAQDFVQWLMNTKRNKNNIA (ligand) [Oxyntomodulin] | 6.2 | 
H[dS]QGTFTSDYSK([PEG2′-PEG2′-Glu-C18 diacid])KLD[Aib]RRAQDFVQWLMNTGGPSSGAPPPS-NH2 [Compound 18] | 0.18 | 0.76
H[dS]QGTFTSDYSK([PEG2′-PEG2′-C18 diacid])KLD[Aib]RRAQDFVQWLMNTGGPSSGAPPPS-NH2 [Compound 16] | 0.2 | 0.6
H[dS]QGTFTSDYSKYLDSK([PEG2′-PEG2′-Glu-C18 diacid])AAHDFVEWLLRA-NH2 [Compound 1] | 0.54 | 0.23
H[dS]QGTFTSDYSKYLD[Aib]K([PEG2′-PEG2′-Glu-C18 diacid])RAQDFVQWLMNTGGPSSGAPPPS-NH2 [Compound 14] | 0.19 | 0.4
H[dS]QGTFTSDYSKYLDEKAAK([PEG2′-PEG2′-Glu-Palmitoyl])EFIEWLLNGGPSSGAPPPS-NH2 [Compound 24] | 0.58 | 0.16
H[dS]QGTFTSDYSKYLDEKAAK([PEG2′-PEG2′-Glu-C18 diacid])EFIEWLLRA-NH2 [Compound 2] | 2.8 | 0.39
H[Aib]QGTFTSDK([PEG2′-PEG2′-Glu-C18 diacid])SKYLD[Aib]RRAQDFVQWLLDGGPSSGAPPPS-NH2 [Compound 22] | 0.32 | 0.06
H[Aib]QGTFTSDK([PEG2′-PEG2′-Glu-Palmitoyl])SKYLD[Aib]RRAQDFVQWLLDGGPSSGAPPPS-NH2 [Compound 21] | 0.66 | 0.15
H[dS]QGTFTSDYSK([PEG2′-PEG2′-Glu-Palmitoyl])KLD[Aib]RRAQDFVQWLMNTGGPSSGAPPPS-NH2 [Compound 17] | 0.58 | 0.68
H[dS]QGTFTSDYSKYLD[Aib]K([PEG2′-PEG2′-Glu-Palmitoyl])RAQDFVQWLMNTGGPSSGAPPPS-NH2 [Compound 13] | 0.16 | 0.44
H[dS]QGTFTSDYSKYLDEKAAK([PEG2′-PEG2′-Palmitoyl])EFIEWLLNGGPSSGAPPPS-NH2 [Compound 23] | 0.43 | 0.13
H[Aib]QGTFTSDK([PEG2′-PEG2′-Glu-Palmitoyl])SKYLDERRAQDFVQWLLDGGPSSGAPPPS-NH2 [Compound 19] | 0.56 | 0.14
H[dS]QGTFTSDYSKYLDK([PEG2′-PEG2′-C18 diacid])RRAQDFVQWLMNTGGPSSGAPPPS-NH2 [Compound 9] | 0.18 | 0.52
